These results are taken from IntAct's records for PubMed 25910212.

The chains are these.
B1: U4/U6 small nuclear ribonucleoprotein Prp31 (Homo sapiens), Q8WWY3 (parent)
chain: MSLADELLADLEEAAEEEEGGSYGEEEEEPAIEDVQEETQLDLSGDSVKTIAKLWDSKMFAEIMMKIEEYISKQAKASEVMGPVEAAPEYRVIVDANNLTVEIENELNIIHKFIRDKYSKRFPELESLVPNALDYIRTVKELGNSLDKCKNNENLQQILTNATIMVVSVTASTTQGQQLSEEELERLEEACDMALELNASKHRIYEYVESRMSFIAPNLSIIIGASTAAKIMGVAGGLTNLSKMPACNIMLLGAQRKTLSGFSSTSVLPHTGYIYHSDIVQSLPPDLRRKAARLVAAKCTLAARVDSFHESTEGKVGYELKDEIERKFDKWQEPPPVKQVKPLPAPLDGQRKKRGGRRYRKMKERLGLTEIRKQANRMSFGEIEEDAYQEDLGFSLGHLGKSGSGRVRQTQVNEATKARISKTLQRTLQKQSVVYGGKSTIRDRSSGTASSVAFTPLQGLEIVNPQAAEKKVAEANQKYFSSMAEFLKVKGEKSGLMST
partner: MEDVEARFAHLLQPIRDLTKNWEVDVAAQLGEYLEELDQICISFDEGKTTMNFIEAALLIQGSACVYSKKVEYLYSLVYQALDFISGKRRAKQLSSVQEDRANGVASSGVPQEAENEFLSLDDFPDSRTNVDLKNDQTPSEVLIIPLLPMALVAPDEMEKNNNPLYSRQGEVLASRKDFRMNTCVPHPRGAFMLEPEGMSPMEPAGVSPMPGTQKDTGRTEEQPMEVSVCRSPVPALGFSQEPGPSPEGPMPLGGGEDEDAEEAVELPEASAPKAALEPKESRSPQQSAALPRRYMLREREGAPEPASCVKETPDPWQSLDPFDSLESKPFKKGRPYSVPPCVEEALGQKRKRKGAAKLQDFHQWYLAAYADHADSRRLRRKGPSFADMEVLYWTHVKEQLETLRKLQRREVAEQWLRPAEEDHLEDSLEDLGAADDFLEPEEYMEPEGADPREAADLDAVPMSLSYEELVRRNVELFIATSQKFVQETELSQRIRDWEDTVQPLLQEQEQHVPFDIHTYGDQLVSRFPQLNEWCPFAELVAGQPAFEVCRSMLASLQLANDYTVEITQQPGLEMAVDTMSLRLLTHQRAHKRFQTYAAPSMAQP
B2: Mothers against decapentaplegic homolog 3 (Homo sapiens), P84022 (parent)
chain: MSSILPFTPPIVKRLLGWKKGEQNGQEEKWCEKAVKSLVKKLKKTGQLDELEKAITTQNVNTKCITIPRSLDGRLQVSHRKGLPHVIYCRLWRWPDLHSHHELRAMELCEFAFNMKKDEVCVNPYHYQRVETPVLPPVLVPRHTEIPAEFPPLDDYSHSIPENTNFPAGIEPQSNIPETPPPGYLSEDGETSDHQMNHSMDAGSPNLSPNPMSPAHNNLDLQPVTYCEPAFWCSISYYELNQRVGETFHASQPSMTVDGFTDPSNSERFCLGLLSNVNRNAAVELTRRHIGRGVRLYYIGGEVFAECLSDSAIFVQSPNCNQRYGWHPATVCKIPPGCNLKIFNNQEFAALLAQSVNQGFEAVYQLTRMCTIRMSFVKGWGAEYRRQTVTSTPCWIELHLNGPLQWLDKVLTQMGSPSIRCSSVS
partner: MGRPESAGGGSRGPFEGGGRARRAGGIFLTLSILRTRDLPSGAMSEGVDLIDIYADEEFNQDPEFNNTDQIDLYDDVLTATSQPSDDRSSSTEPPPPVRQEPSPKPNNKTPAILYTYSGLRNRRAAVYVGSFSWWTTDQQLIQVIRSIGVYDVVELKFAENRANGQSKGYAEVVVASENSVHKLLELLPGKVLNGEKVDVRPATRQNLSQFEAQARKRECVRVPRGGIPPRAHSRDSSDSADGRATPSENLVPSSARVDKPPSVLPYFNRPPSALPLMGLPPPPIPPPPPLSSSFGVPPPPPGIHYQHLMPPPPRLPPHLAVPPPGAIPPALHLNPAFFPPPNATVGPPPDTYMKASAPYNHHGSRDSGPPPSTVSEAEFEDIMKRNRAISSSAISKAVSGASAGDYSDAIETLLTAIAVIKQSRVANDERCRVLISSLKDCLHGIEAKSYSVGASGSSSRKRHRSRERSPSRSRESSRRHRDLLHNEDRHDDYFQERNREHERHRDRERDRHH
B3: Sodium/myo-inositol cotransporter 2 (Homo sapiens), Q8WWX8-3 (parent)
chain: MVWWPVGASLFASNVGSGHFIGLAGSGAATGISVSAYELNGLFSVLMLAWIFLPIYIAGQVTTMPEYLRKRFGGIRIPIILAVLYLFIYIFTKISVDMYAGAIFIQQSLHLDLYLAIVGLLAITAVYTVAGGLAAVIYTDALQTLIMLIGALTLMGYSFAAVGGMEGLKEKYFLALASNRSENSSCGLPREDAFHIFRDPLTSDLPWPGVLFGMSIPSLWYWCTDQVIVQRTLAAKNLSHAKGGALMAAYLKVLPLFIMVFPGMVSRILFPDQVACADPEICQKICSNPSGCSDIAYPKLVLELLPTGLRGLMMAVMVAALMSSLTSIFNSASTIFTMDLWNHLRPRASEKELMIVGRVFVLLLVLVSILWIPVVQASQGGQLFIYIQSISSYLQPPVAVVFIMGCFWKRTNEKGAFWGLISGLLLGLVRLVLDFIYVQPRCDQPDERPVLVKSIHYLYFSMILSTVTLITVSTVSWFTEPPSKEMVSHLTWFTRHDPVVQKEQAPPAAPLSLTLSQNGMPEASSSSSVQFEMVQENTSKTHSCDMTPKQSKVVKAILWLCGIQEKGKEELPARAEAIIVSLEENPLVKTLLDVNLIFCVSCAIFIWGYFA
B4: Lipopolysaccharide-induced tumor necrosis factor-alpha factor (Homo sapiens), Q99732 (parent)
chain: MSVPGPYQAATGPSSAPSAPPSYEETVAVNSYYPTPPAPMPGPTTGLVTGPDGKGMNPPSYYTQPAPIPNNNPITVQTVYVQHPITFLDRPIQMCCPSCNKMIVSQLSYNAGALTWLSCGSLCLLGCIAGCCFIPFCVDALQDVDHYCPNCRALLGTYKRL
partner: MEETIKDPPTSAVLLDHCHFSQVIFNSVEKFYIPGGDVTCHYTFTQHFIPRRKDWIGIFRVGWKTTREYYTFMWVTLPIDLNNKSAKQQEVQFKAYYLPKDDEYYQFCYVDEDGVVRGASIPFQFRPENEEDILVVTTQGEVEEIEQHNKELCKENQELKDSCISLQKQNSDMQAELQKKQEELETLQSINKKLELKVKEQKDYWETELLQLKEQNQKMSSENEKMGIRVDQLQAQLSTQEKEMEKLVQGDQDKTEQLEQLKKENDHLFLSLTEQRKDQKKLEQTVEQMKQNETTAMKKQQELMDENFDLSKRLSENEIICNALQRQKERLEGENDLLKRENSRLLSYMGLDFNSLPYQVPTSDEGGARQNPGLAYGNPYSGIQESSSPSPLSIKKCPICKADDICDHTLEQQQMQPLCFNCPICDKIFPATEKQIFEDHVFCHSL
B5: Glycogen phosphorylase, liver form (Homo sapiens), P06737 (parent)
chain: MAKPLTDQEKRRQISIRGIVGVENVAELKKSFNRHLHFTLVKDRNVATTRDYYFALAHTVRDHLVGRWIRTQQHYYDKCPKRVYYLSLEFYMGRTLQNTMINLGLQNACDEAIYQLGLDIEELEEIEEDAGLGNGGLGRLAACFLDSMATLGLAAYGYGIRYEYGIFNQKIRDGWQVEEADDWLRYGNPWEKSRPEFMLPVHFYGKVEHTNTGTKWIDTQVVLALPYDTPVPGYMNNTVNTMRLWSARAPNDFNLRDFNVGDYIQAVLDRNLAENISRVLYPNDNFFEGKELRLKQEYFVVAATLQDIIRRFKASKFGSTRGAGTVFDAFPDQVAIQLNDTHPALAIPELMRIFVDIEKLPWSKAWELTQKTFAYTNHTVLPEALERWPVDLVEKLLPRHLEIIYEINQKHLDRIVALFPKDVDRLRRMSLIEEEGSKRINMAHLCIVGSHAVNGVAKIHSDIVKTKVFKDFSELEPDKFQNKTNGITPRRWLLLCNPGLAELIAEKIGEDYVKDLSQLTKLHSFLGDDVFLRELAKVKQENKLKFSQFLETEYKVKINPSSMFDVQVKRIHEYKRQLLNCLHVITMYNRIKKDPKKLFVPRTVIIGGKAAPGYHMAKMIIKLITSVADVVNNDPMVGSKLKVIFLENYRVSLAEKVIPATDLSEQISTAGTEASGTGNMKFMLNGALTIGTMDGANVEMAEEAGEENLFIFGMRIDDVAALDKKGYEAKEYYEALPELKLVIDQIDNGFFSPKQPDLFKDIINMLFYHDRFKVFADYEAYVKCQDKVSQLYMNPKAWNTMVLKNIAASGKFSSDRTIKEYAQNIWNVEPSDLKISLSNESNKVNGN
partner: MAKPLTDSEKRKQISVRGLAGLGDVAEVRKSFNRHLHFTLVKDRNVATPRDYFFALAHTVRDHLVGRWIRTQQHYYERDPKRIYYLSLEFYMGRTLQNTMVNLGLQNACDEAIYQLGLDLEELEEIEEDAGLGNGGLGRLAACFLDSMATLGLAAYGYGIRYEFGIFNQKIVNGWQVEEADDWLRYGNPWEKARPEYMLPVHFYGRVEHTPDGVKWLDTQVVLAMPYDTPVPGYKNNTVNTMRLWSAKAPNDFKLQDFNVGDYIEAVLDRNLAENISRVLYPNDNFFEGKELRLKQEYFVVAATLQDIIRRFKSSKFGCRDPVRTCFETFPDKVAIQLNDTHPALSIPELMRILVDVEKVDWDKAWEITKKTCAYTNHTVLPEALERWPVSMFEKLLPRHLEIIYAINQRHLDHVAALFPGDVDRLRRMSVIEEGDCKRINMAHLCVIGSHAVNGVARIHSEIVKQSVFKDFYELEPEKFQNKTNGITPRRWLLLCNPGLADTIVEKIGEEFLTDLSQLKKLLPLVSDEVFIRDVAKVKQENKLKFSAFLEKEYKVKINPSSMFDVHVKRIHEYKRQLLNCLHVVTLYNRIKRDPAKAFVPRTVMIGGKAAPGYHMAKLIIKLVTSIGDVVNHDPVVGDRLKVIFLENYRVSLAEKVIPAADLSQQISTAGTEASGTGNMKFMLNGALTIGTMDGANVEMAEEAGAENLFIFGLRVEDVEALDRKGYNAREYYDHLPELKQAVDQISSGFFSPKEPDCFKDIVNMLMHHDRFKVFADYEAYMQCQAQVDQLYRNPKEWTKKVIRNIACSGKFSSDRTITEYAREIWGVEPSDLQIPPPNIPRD
B6: N-chimaerin (Homo sapiens), P15882 (parent)
chain: MALTLFDTDEYRPPVWKSYLYQLQQEAPHPRRITCTCEVENRPKYYGREFHGMISREAADQLLIVAEGSYLIRESQRQPGTYTLALRFGSQTRNFRLYYDGKHFVGEKRFESIHDLVTDGLITLYIETKAAEYIAKMTINPIYEHVGYTTLNREPAYKKHMPVLKETHDERDSTGQDGVSEKRLTSLVRRATLKENEQIPKYEKIHNFKVHTFRGPHWCEYCANFMWGLIAQGVKCADCGLNVHKQCSKMVPNDCKPDLKHVKKVYSCDLTTLVKAHTTKRPMVVDMCIREIESRGLNSEGLYRVSGFSDLIEDVKMAFDRDGEKADISVNMYEDINIITGALKLYFRDLPIPLITYDAYPKFIESAKIMDPDEQLETLHEALKLLPPAHCETLRYLMAHLKRVTLHEKENLMNAENLGIVFGPTLMRSPELDAMAALNDIRYQRLVVELLIKNEDILF

One assay covers variants of B1. The conditions noted are these: with cndh2_human NCAPH2, Q6IBW4.
Turning to L107V, the “effect of a mutation on the interaction” value is listed as “with no effect”.

The next assay covers variants of B2. The conditions noted are these: with CPSF7, Q8N684-3.
As to I170V, the “effect of a mutation on the interaction” value is “with no effect”.

With N197I, the “effect of a mutation on the interaction” value is recorded as “with no effect”.

Variants of B3 are the subject of a further assay. As to conditions: with ima4_human KPNA3, O00505.
Sequence of ima4_human KPNA3, O00505 (O00505 whole entry): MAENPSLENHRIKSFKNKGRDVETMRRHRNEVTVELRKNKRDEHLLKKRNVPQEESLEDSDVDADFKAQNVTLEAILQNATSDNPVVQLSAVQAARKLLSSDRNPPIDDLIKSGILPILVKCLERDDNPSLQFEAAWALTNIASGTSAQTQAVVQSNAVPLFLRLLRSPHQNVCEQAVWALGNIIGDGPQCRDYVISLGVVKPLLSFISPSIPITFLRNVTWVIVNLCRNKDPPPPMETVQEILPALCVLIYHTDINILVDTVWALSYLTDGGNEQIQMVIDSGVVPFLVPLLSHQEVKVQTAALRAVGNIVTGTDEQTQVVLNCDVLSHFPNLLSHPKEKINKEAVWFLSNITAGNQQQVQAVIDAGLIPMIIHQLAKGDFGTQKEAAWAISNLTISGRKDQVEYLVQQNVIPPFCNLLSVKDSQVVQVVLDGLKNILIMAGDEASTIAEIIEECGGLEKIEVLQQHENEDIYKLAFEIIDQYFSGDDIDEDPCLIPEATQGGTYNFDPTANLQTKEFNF
Regarding V118A, the “effect of a mutation on the interaction” value is “with no effect”.

In a further assay the parent is B4. The conditions noted are these: with caco2_human CALCOCO2, Q13137.
For the variant A111G, the “effect of a mutation on the interaction” value is “disrupting interaction strength”. Take G112S: the “effect of a mutation on the interaction” value was “disrupting interaction strength”. Same read-out and setting: for I92V the value was “with no effect”.

Variants of B5 are the subject of a further assay. The conditions noted are these: with pygb_human PYGB.
As to N339S, the “effect of a mutation on the interaction” value is given as “with no effect”. Turning to N377K, the “effect of a mutation on the interaction” value was “with no effect”.

Another assay covers variants of B6. The conditions noted are these: with nck2_human NCK2, O43639.
Sequence of nck2_human NCK2, O43639 (O43639 whole entry): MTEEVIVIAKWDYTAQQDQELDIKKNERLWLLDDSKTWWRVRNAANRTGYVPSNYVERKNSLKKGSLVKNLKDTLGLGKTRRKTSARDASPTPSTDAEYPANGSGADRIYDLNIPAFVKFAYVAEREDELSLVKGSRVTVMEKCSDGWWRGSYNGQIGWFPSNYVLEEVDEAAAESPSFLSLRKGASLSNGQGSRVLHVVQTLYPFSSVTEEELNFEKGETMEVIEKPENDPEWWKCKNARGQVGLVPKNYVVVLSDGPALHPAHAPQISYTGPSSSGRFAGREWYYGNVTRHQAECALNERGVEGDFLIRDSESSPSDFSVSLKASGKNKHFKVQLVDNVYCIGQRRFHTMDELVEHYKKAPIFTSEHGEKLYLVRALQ
For L20F, the “effect of a mutation on the interaction” value is recorded as “with no effect”. Consider G228S, for which the “effect of a mutation on the interaction” value was “with no effect”. For P252Q, the “effect of a mutation on the interaction” value is “with no effect”.
